Test results: patent publication US10765739B2, “Use of MIF and MIF pathway agonists” (Yale University, priority 2006, dated 2020)

Tests used:
AMPK [1] = assay: AMPK Thr172 phosphorylation (immunoblot densitometry) in isolated heart papillary muscles; assay type: cell-based, rat; conditions: normoxic heart muscles
Method: (§1) Briefly, rat heart anterior and posterior left ventricular papillary muscles (3-5 mg) were equilibrated in oxygenated Dulbecco's phosphate-buffered saline (PBS) containing 1 mM MgCl2 […], glucose, and 1% BSA. Unless otherwise noted, 100% oxygen flowed continuously through sealed muscle incubation containers while muscles were kept in an oscillating water bath at 37° C., and experiments began after a 15 minute equilibration period in these conditions. During incubations designed to examine the effects of hypoxia, muscles were transferred to incubation containers gassed with N2 for 30 minutes. In incubations with rMIF (0-800 ng/ml), anti-MIF blocking antibody (100 μg/ml), and/or non-immune rabbit IgG (100 μg/ml); Sigma, USA), these compounds were added for 30-120 minutes. At the end of experiments, muscles were freeze clamped and stored in liquid nitrogen until further analysis, unless otherwise specified.
(§2) Immunoblots were performed according to standard methods known in the art. See, for example, Li et al., Am. J. Physiol Endocrinol Metab 287, E384 (2004) and Baron et al., Circ Res (Jan. 13, 2005). Heart homogenate proteins were combined with Laemmli sample buffer prior to resolution by SDS-PAGE, transferred onto polyvinylidene difluoride membranes, immunoblotted, detected with enhanced chemiluminesence, and quantified by densitometry.

[2] = tested on: rat heart left ventricular papillary muscles; assay: 2-deoxy-[1-3H]glucose uptake in isolated heart papillary muscles; assay type: cell-based; conditions: normoxic heart muscles, 0-800 ng/ml for 60 minutes
Method: as §1
To further support MIF's role in modulating the AMPK pathway, we added recombinant human MIF (rMIF) to intact normoxic heart muscles. Papillary muscles were isolated as above. […]

GLUT4 = assay: Cell-surface GLUT4 content of papillary muscles by bio-LC-ATB-BGPA photolabel; assay type: cell-based, rat; conditions: 400 ng/ml for 60 minutes
Method: as §1, with “At the end of experiments, muscles were freeze clamped and stored in liquid nitrogen until further analysis, unless otherwise specified.” left out
Glucose uptake is primarily mediated by the glucose transporter, GLUT4, and AMPK-stimulation of glucose transport is due to the translocation of GLUT4 vesicles to the cell surface, where GLUT4 is physiologically active (Sun et al., Circulation 89, 793 (1994); Young et al., Circulation 95, 415 (1997)). Thus, we assessed the cell-surface GLUT4 content of heart muscles after incubation with rMIF, utilizing a cell-membrane impermeant biotinylated glucose transporter photolabel (bio-LC-ATB-BGPA). […]

AMPK [3] = assay: Hypoxic AMPK phosphorylation in human dermal fibroblasts by MIF promoter genotype; assay type: cell-based; conditions: 10 ng/ml during 9 hours of hypoxia
Method: as §2
To isolate human fibroblasts, human foreskin samples were obtained from the Yale Human Cell Resource Center (Department of Dermatology) in accordance with the Yale Human Investigations Committee. Fibroblasts were cultured in DMEM supplemented with 10% fetal bovine serum (FBS), penicillin (100 IU/ml) and streptomycin (100 μg/ml) at 37° C. Cells were studied at 80% confluence, and on the day prior to experiments, culture media was changed to DMEM with 1% FBS. Early passage fibroblasts were either subjected to 9 hours of hypoxia by incubation in an air-tight chamber gassed with 95% nitrogen/5% CO2 or control incubation in room air.
To confirm that relative MIF deficiency was responsible for impaired hypoxic AMPK activation in the low-expressing 5/5 genotype fibroblasts, we investigated the effect of adding human rMIF (10 ng/ml) to the culture media during hypoxic incubation.

B1: rMIF: recombinant human MIF (macrophage migration inhibitory factor), the preferred MIF agonist (protein, UniProt P14174 2-115, looked up)
Macrophage migration …: PMFIVNTNVPRASVPDGFLSELTQQLAQATGKPPQYIAVHVVPDQLMAFGGSSEPCALCSLHSIGKIGGAQNRSYSKLLCGLLAERLRISPDRVYINYYDMNAANVGWNNSTFA
- AMPK Thr172 phosphorylation (AMPK [1]; 0-400 ng/ml, 0-120 minutes): time- and dose-dependent increase
- maximal AMPK activation (AMPK Thr172 phosphorylation) (AMPK [1]; 400 ng/ml incubated for 60 minutes): 1.5-2.0 fold increase
- glucose uptake [2]: increase
- cell-surface GLUT4 (GLUT4): increased
- hypoxic AMPK signaling (AMPK phosphorylation) (AMPK [3]; 5/5 genotype fibroblasts): rescued
- AMPK phosphorylation (AMPK [3]; hypoxic non-5/5 genotype fibroblasts): no additional effect
